Experimental data reported in IntAct's records for PubMed 21423214.

B1: Tyrosine-protein kinase JAK2 (Mus musculus), Q62120 (parent)
chain: MGMACLTMTEMEATSTSPVHQNGDIPGSANSVKQIEPVLQVYLYHSLGQAEGEYLKFPSGEYVAEEICVAASKACGITPVYHNMFALMSETERIWYPPNHVFHIDESTRHDILYRIRFYFPHWYCSGSSRTYRYGVSRGAEAPLLDDFVMSYLFAQWRHDFVHGWIKVPVTHETQEECLGMAVLDMMRIAKEKDQTPLAVYNSVSYKTFLPKCVRAKIQDYHILTRKRIRYRFRRFIQQFSQCKATARNLKLKYLINLETLQSAFYTEQFEVKESARGPSGEEIFATIIITGNGGIQWSRGKHKESETLTEQDVQLYCDFPDIIDVSIKQANQECSNESRIVTVHKQDGKVLEIELSSLKEALSFVSLIDGYYRLTADAHHYLCKEVAPPAVLENIHSNCHGPISMDFAISKLKKAGNQTGLYVLRCSPKDFNKYFLTFAVERENVIEYKHCLITKNENGEYNLSGTKRNFSNLKDLLNCYQMETVRSDSIIFQFTKCCPPKPKDKSNLLVFRTNGISDVQISPTLQRHNNVNQMVFHKIRNEDLIFNESLGQGTFTKIFKGVRREVGDYGQLHKTEVLLKVLDKAHRNYSESFFEAASMMSQLSHKHLVLNYGVCVCGEENILVQEFVKFGSLDTYLKKNKNSINILWKLGVAKQLAWAMHFLEEKSLIHGNVCAKNILLIREEDRRTGNPPFIKLSDPGISITVLPKDILQERIPWVPPECIENPKNLNLATDKWSFGTTLWEICSGGDKPLSALDSQRKLQFYEDKHQLPAPKWTELANLINNCMDYEPDFRPAFRAVIRDLNSLFTPDYELLTENDMLPNMRIGALGFSGAFEDRDPTQFEERHLKFLQQLGKGNFGSVEMCRYDPLQDNTGEVVAVKKLQHSTEEHLRDFEREIEILKSLQHDNIVKYKGVCYSAGRRNLRLIMEYLPYGSLRDYLQKHKERIDHKKLLQYTSQICKGMEYLGTKRYIHRDLATRNILVENENRVKIGDFGLTKVLPQDKEYYKVKEPGESPIFWYAPESLTESKFSVASDVWSFGVVLYELFTYIEKSKSPPVEFMRMIGNDKQGQMIVFHLIELLKSNGRLPRPEGCPDEIYVIMTECWNNNVSQRPSFRDLSLRVDQIRDSIAA

Variants of: B1
Details: with cdn1b_human CDKN1B

Row | effect of a mutation on the interaction | Variant
1 | increasing interaction strength | V617F
